Measurements: patent US20180171027A1 (Celldex Therapeutics, Inc., priority 2015, published 2018)

Tests used:
ErbB3 [1] = target: T1, ErbB3 (Homo sapiens, UniProt P21860); assay: cell-based or functional assay
ErbB3 [2] = target: T1, ErbB3
ErbB3 [3] = target: T1, ErbB3; assay: ErbB phosphorylation (Theranostics Health platform): ErbB3 activation (pErbB3); assay type: cell-based; design: endogenous in cells; host or cells: SCCHN cell lines (Cal27, FaDu, UNC7, SCC61 and others); conditions: Cal27 cells, similar results in FaDu
Description: ErbB phosphorylation was measured using the Theranostics Health platform.

ErbB3 [4] = target: T1, ErbB3; assay: cell-based or functional assay; remark: listed apart in the source
ErbB3 [5] = target: T1, ErbB3; assay: ErbB3 phosphorylation ELISA, titration of purified NRG proteins on T47D cells; assay type: cell-based; design: endogenous in cells
Description: Genes encoding the full extracellular domains of each NRG gene and isoform (NRG1α, NRG1β, NRG2α, and NRG2β) were modified to encode a signal peptide at their 5′ end, in order to induce secretion, and a His-tag at their 3′ end. Constructs were transfected into HEK293 cells and conditioned media was treated with NaCl to a final concentration of 0.5 M. NRG-containing media was purified by NiNTA chromatography and eluted with stepwise increases in imidazole in a phosphate buffer containing 0.5 M NaCl. NRG-containing fractions were pooled and further purified by size-exclusion chromatography with a mobile phase consisting of a phosphate-based buffer with 0.5 M NaCl. Purified NRG proteins were titrated on T47D breast cancer cells (which naturally express all ErbB receptors) for 10 minutes at 37° C. ErbB3 phosphorylation was measured by ELISA.

In the case of “NRG1β full extracellular domain, His-tagged (from UniProt Q02297 20-242) (ligand)”, the potency of ErbB3 phosphorylation relative to the other NRG isoforms, T47D cells (ErbB3 [1]) is reported as 10 fold and the EC50 (read off the curve), ErbB3 phosphorylation in T47D cells (ELISA) [panel B] (ErbB3 [2]) is reported as 1 nM.

For “pertuzumab: anti-ErbB2 monoclonal antibody [reference compound]”, the “inhibiting or blocking EGF-stimulated activation of ErbB3” value (ErbB3 [3]; presence of EGF) was “neither pertuzumab nor 2C2-YTE were capable of inhibiting or blocking” and the “activation of ErbB3” value (ErbB3 [3]; presence of NRG) was “blocked activation”.

B1: 2C2-YTE anti-HER3 antibody (antibody, human IgG1, V domains shown)
VH: EVQLLESGGGLVQPGGSLRLSCAASGFTFSYYYMQWVRQAPGKGLEWVSYIGSSGGVTNYADSVKGRFTISRDNSKNTLYLQMNSLRAEDTAVYYCARVGLGDAFDIWGQGTMVTVSS
VL: QSVLTQPPSASGTPGQRVTISCSGSLSNIGLNYVSWYQQLPGTAPKLLISRNNQRPSGVPDRFSGSKSGTSASLAISGLRSEDEADYYCAAWDDSPPGEAFGGGTKLTVL
Work on B1 yielded a pY-H3 (VeraTag phosphorylated ErbB3), 4213 non-cancerous skin cell line, 2C2-YTE treatment (ErbB3 [4]) of 0.6, a pY-H3 (VeraTag phosphorylated ErbB3), 4213 non-cancerous skin cell line, control IgG1 treatment (baseline for 2C2-YTE) (ErbB3 [4]) of 0.5 and a pY-H3 (VeraTag phosphorylated ErbB3), CAL27 cells, 2C2-YTE treatment (ErbB3 [4]) of 0.6. The pY-H3 (VeraTag phosphorylated ErbB3), CAL27 cells, control IgG1 treatment (baseline for 2C2-YTE) (ErbB3 [4]) was 4.6, the pY-H3 (VeraTag phosphorylated ErbB3), SCC35 cells, 2C2-YTE treatment (ErbB3 [4]) was 0.4 and the pY-H3 (VeraTag phosphorylated ErbB3), SCC35 cells, control IgG1 treatment (baseline for 2C2-YTE) (ErbB3 [4]) was 1.1. The pY-H3 (VeraTag phosphorylated ErbB3), SCC61 cells, 2C2-YTE treatment (ErbB3 [4]) was 0.6, the pY-H3 (VeraTag phosphorylated ErbB3), SCC61 cells, control IgG1 treatment (baseline for 2C2-YTE) (ErbB3 [4]) was 6.1 and the pY-H3 (VeraTag phosphorylated ErbB3), UNC7 cells, 2C2-YTE treatment (ErbB3 [4]) was 0.4. For the same molecule, the pY-H3 (VeraTag phosphorylated ErbB3), UNC7 cells, control IgG1 treatment (baseline for 2C2-YTE) (ErbB3 [4]) was 3.5, the pY-H3 (VeraTag phosphorylated ErbB3), UNC10 cells, control IgG1/2C2-YTE (one value given) (ErbB3 [4]) was 0 and the pY-H3 pharmacodynamic (PD) ratio, 4213 non-cancerous skin cell line (ErbB3 [4]) was 1. The pY-H3 pharmacodynamic (PD) ratio, CAL27 cells (ErbB3 [4]) was 7.5, the pY-H3 pharmacodynamic (PD) ratio, SCC35 cells (ErbB3 [4]) was 2.8 and the pY-H3 pharmacodynamic (PD) ratio, SCC61 cells (ErbB3 [4]) was 10.6. The pY-H3 pharmacodynamic (PD) ratio, UNC7 cells (ErbB3 [4]) was 8.4 and the pY-H3 pharmacodynamic (PD) ratio, UNC10 cells (ErbB3 [4]) was 0.

B2: NRG1β: purified His-tagged full extracellular domain of neuregulin isoform, recombinantly expressed by HEK293 cells (protein, UniProt Q02297 20-242, looked up)
extracellular domain: SGKKPESAAGSQSPALPPRLKEMKSQESAAGSKLVLRCETSSEYSSLRFKWFKNGNELNRKNKPQNIKIQKKPGKSELRINKASLADSGEYMCKVISKLGNDSASANITIVESNEIITGMPASTEGAYVSSESPIRISVSTEGANTSSSTSTSTTGTSHLVKCAEKEKTFCVNGGECFMVKDLSNPSRYLCKCQPGFTGARCTENVPMKVQNQEKAEELYQKR
modifications: extracellular domain His tag
notes: purified His-tagged full extracellular domain of neuregulin isoform, recombinantly expressed by HEK293 cells
In the case of B2, the “potency of ErbB3 activation relative to the other NRG isoforms” value (ErbB3 [5]) is reported as “approximately 10 fold”.

B3: NRG2β full extracellular domain, His-tagged (ligand, UniProt O14511 112-405, looked up, not shown: small tags and cut ends)
chain: CYSPSLKSVQDQAYKAPVVVEGKVQGLVPAGGSSSNSTREPPASGRVALVKVLDKWPLRSGGLQREQVISVGSCVPLERNQRYIFFLEPTEQPLVFKTAFAPLDTNGKNLKKEVGKILCTDCATRPKLKKMKSQTGQVGEKQSLKCEAAAGNPQPSYRWFKDGKELNRSRDIRIKYGNGRKNSRLQFNKVKVEDAGEYVCEAENILGKDTVRGRLYVNSVSTTLSSWSGHARKCNETAKSYCVNGGVCYYIEGINQLSCKCPNGFFGQRCLEKLPLRLYMPDPKQKAEELYQKR
With B3 the EC50 (read off the curve), ErbB3 phosphorylation in T47D cells (ELISA) [panel B] (ErbB3 [2]) was 7 nM.
